In patent publication US20110250130A1 (AbbVie / Abbott, published 2011):
Numbering of substitutions follows the chain as printed.

B1: AB256 (antibody, V domains shown)
VH: EVQLVESGGGLVQPGGSLRLSCAVSGFTLSDYGVNWVRQAPGKGLEWLGMIWGDGSTDYDSTLKSRLTISKDNSKSTIYLQMNSLRAEDTAVYYCAREWHHGPVAYWGQGTLVTVSS
VL: DIQMTQSPSSLSASVGDRVTITCKASQAVSSAVAWYQQKPGKAPKLLIYWASTRHTGVPSRFSGSGSGTDFTLTISSLQPEDFATYYCQQHYSTPFTFGQGTKLEIK
notes: also called hMAK195VH.2a / hMAK195VL.1
B2: AB262 (antibody, V domains shown)
VH: B1 VH with V24A, L48V, G49S, L67F, S76N, I78L
VL: EIVMTQSPATLSLSPGERATLSCKASQAVSSAVAWYQQKPGQAPRLLIYWASTRHTGIPARFSGSGSGTDFTLTISSLQPEDFAVYYCQQHYSTPFTFGQGTKLEIK
notes: also called hMAK195VH.2b / hMAK195VL.2
B3: AB259 (antibody, V domains shown)
VH: B1 VH
VL: B2 VL with A43S, I58V
notes: also called hMAK195VH.2a / hMAK195VL.2a
B4: AB257 (antibody, V domains shown)
VH: B1 VH
VL: B1 VL with A43S
notes: also called hMAK195VH.2a / hMAK195VL.1a
B5: AB261 (antibody, V domains shown)
VH: B1 VH with V24A, L48V, G49S, L67F, S76N, I78L
VL: B1 VL with A43S
notes: also called hMAK195VH.2b / hMAK195VL.1a
B6: AB263 (antibody, V domains shown)
VH: B1 VH with V24A, L48V, G49S, L67F, S76N, I78L
VL: B2 VL with A43S, I58V
notes: also called hMAK195VH.2b / hMAK195VL.2a
B7: AB258 (antibody, V domains shown)
VH: B1 VH
VL: B2 VL
notes: also called hMAK195VH.2a / hMAK195VL.2
B8: AB254 (antibody, V domains shown)
VH: B1 VH with V24A, L29F, L48V, G49S, L67F, K71R, S76N, I78L
VL: B2 VL
notes: also called hMAK195VH.2 / hMAK195VL.2
B9: AB255 (antibody, V domains shown)
VH: B1 VH with V24A, L29F, L48V, G49S, L67F, K71R, S76N, I78L
VL: B2 VL with A43S, I58V
notes: also called hMAK195VH.2 / hMAK195VL.2a

Biological target: T1, Recombinant Human TNF-α/TNFSF1A (human, UniProt P01375 77-233)
Assay: cell-based or functional assay

T1 sequence (P01375 77-233 limits assumed): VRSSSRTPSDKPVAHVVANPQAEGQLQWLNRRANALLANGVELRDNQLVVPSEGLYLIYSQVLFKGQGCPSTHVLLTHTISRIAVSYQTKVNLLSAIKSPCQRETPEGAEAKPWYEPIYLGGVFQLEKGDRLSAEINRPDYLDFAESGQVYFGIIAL

| TNF-α neutralization assay IC50 (nM), L929 cells | Binder |
| --- | --- |
| 0.058 nM | B1 |
| 0.218 nM | B2 |
| 0.071 nM | B3 |
| 0.077 nM | B4 |
| 0.187 nM | B5 |
| 0.193 nM | B6 |
| 0.078 nM | B7 |
| 0.799 nM | B8 |
| 0.477 nM | B9 |

Biological target: T1, Recombinant Human TNF-α/TNFSF1A
Assay: SPR (Biacore), antibody captured, TNF-α in solution
Method: The BIACORE assay (Biacore, Inc. Piscataway, N.J.) determines the affinity of antibodies with kinetic measurements of on-rate and off-rate constants. Binding of antibodies to a target antigen (for example, a purified recombinant target antigen) is determined by surface plasmon resonance-based measurements with a Biacore® 1000 or 3000 instrument (Biacore® AB, Uppsala, Sweden) using running HBS-EP (10 mM HEPES [pH 7.4], 150 mM NaCl, 3 mM EDTA, and 0.005% surfactant P20) at 25° C. All chemicals are obtained from Biacore® AB (Uppsala, Sweden) or otherwise from a different source as described in the text. For example, approximately 5000 RU of goat anti-mouse IgG, (Fcγ), fragment specific polyclonal antibody (Pierce Biotechnology Inc, Rockford, Ill., US) diluted in 10 mM sodium acetate (pH 4.5) is directly immobilized across a CM5 research grade biosensor chip using a standard amine coupling kit according to manufacturer's instructions and procedures at 25 μg/ml. Unreacted moieties on the biosensor surface are blocked with ethanolamine. Modified carboxymethyl dextran surface in flowcell 2 and 4 is used as a reaction surface. Unmodified carboxymethyl dextran without goat anti-mouse IgG in flow cell 1 and 3 is used as the reference surface. For kinetic analysis, rate equations derived from the 1:1 Langmuir binding model are fitted simultaneously to association and dissociation phases of all eight injections (using global fit analysis) with the use of Biaevaluation 4.0.1 software. Purified antibodies are diluted in HEPES-buffered saline for capture across goat anti-mouse IgG specific reaction surfaces. Antibodies to be captured as a ligand (25 μg/ml) are injected over reaction matrices at a flow rate of 5 μl/minute. The association and dissociation rate constants, kₒₙ (M⁻¹s⁻¹) and koff (s⁻¹), are determined under a continuous flow rate of 25 μl/minute. Rate constants are derived by making kinetic binding measurements at different antigen concentrations ranging from 10-200 nM. The equilibrium dissociation constant (M) of the reaction between antibodies and the target antigen is then calculated from the kinetic rate constants by the following formula: KD=koff/kₒₙ. Binding is recorded as a function of time and kinetic rate constants are calculated. In this assay, on-rates as fast as 10⁶ M⁻¹s⁻¹ and off-rates as slow as 10⁻⁶ s⁻¹ can be measured.

| Kd | koff | kon | Binder |
| --- | --- | --- | --- |
| 0.0505 nM | 0.000177 s⁻¹ | 3.54e+06 M⁻¹ s⁻¹ | B1 |
| 0.136 nM | 0.00029 s⁻¹ | 2.14e+06 M⁻¹ s⁻¹ | B2 |
| 0.0677 nM | 0.000203 s⁻¹ | 3e+06 M⁻¹ s⁻¹ | B3 |
| 0.062 nM | 0.000217 s⁻¹ | 3.56e+06 M⁻¹ s⁻¹ | B4 |
| 0.122 nM | 0.000285 s⁻¹ | 2.36e+06 M⁻¹ s⁻¹ | B5 |
| 0.169 nM | 0.000273 s⁻¹ | 1.61e+06 M⁻¹ s⁻¹ | B6 |
| 0.0816 nM | 0.000244 s⁻¹ | 3.04e+06 M⁻¹ s⁻¹ | B7 |
| 0.12 nM | 0.000287 s⁻¹ | 2.4e+06 M⁻¹ s⁻¹ | B8 |
| 0.148 nM | 0.000384 s⁻¹ | 2.62e+06 M⁻¹ s⁻¹ | B9 |
